The target of assay [1] is T1, recombinant human ILT4 (LILRB2) (human, UniProt Q8N423 22-460).
T1 construct: Bought protein (Acro Biosystems or R&D Systems); also called ILTR4
As to the kind of experiment: KinExA, solution equilibrium, n-curve analysis. How it is done:
Kinetic Exclusion Assay (KinExA®) was performed to measure the equilibrium binding affinity and kinetics between human ILT4 and four humanized LALA-Fc modified antibodies in solution. For affinity analysis, the equilibrium dissociation constant, KD, was experimentally determined and reflects the strength of the binding interaction. The rate of association, kₒₙ, was also experimentally determined, while the rate of dissociation, koff, is calculated based on the following equation: koff=KD×kₒₙ
The binding affinity (KD), association (kₒₙ), and dissociation rate constants (koff) were measured for 4 different Humanized LALA IgG antibodies to ILT4 using KinExA. An n-curve analysis of at least two different curves, run at two different CBP concentrations, was used to determine the KD of the interactions The ILT4 was used as the concentration reference for all curves. All of the binding systems have low error and well defined 95% confidence intervals giving confidence to the measurements: […]
In general terms: Kinetic exclusion samples the free partner from a solution-phase mixture.

The target in assay [2] is T2, LILRA3 (human, UniProt Q8N6C8 24-439).
T2 construct: Bought protein; limits of the part used are marked by bold type not visible here; whole entry named; also called recombinant human LILRA3
In words: SPR, Biacore 8K, mAb captured on anti-human Fc, LILRA3 at 100 nM; legend: + weak binding (~600-700 nM KD). As for the experimental part:
(§1) SPR was used to determine the specificity of four humanized anti-ILT4 mAbs for binding to LILRB2 and to determine any cross-reactivity with nine other LILRA and LILRB family members. LILR proteins were purchased from Acro Biosystems or R&D Systems, with sequence provided below. The studies were performed with a Biacore 8K instrument using a CM4 sensor chip with a running buffer of HBS-P+, 100 μg/mL BSA. Anti-human Fc specific capture surfaces were prepared using standard amine coupling chemistry. MAb was captured to flow cell 2 with flow cell 1 serving as the reference flow cell. Each of the nine family members and LILRB2 were injected at 100 nM at 30 μL/min for 90 sec with 240 sec of dissociation. […] All sensorgrams were doubled-referenced during processing of the data.

Assay [3] has as its target T1, recombinant human ILT4 (LILRB2). In words: SPR, high resolution kinetics, triplicate, LALA antibody. A general note: Surface plasmon resonance follows binding to a sensor surface in real time, without labels.
The target in another assay is T3, LILRA1 (human, UniProt O75019 17-461).
T3 construct: Bought protein; limits of the extracellular domain are marked by bold type not visible here; whole entry named; also called recombinant human LILRA1
As to the kind of experiment: SPR, Biacore 8K cross-reactivity study. How it is done: as §1

The target in assay [4] is T1, recombinant human ILT4 (LILRB2). As to the kind of experiment: SPR, Biacore 8K, mAb captured on anti-human Fc, LILRB2 at 100 nM; legend: ++++ tight binding (<100 pM KD). How it is done: as §1
The target is the same in assay [5]. In words: SPR, Biacore T200, medium resolution; koff held at its limit of 4.27e-5 s^-1. The essentials: (§2)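 Mouse, chimeric or humanized mAbs captured on anti-Fc surfaces (CM4 chip); ILT4 injected at 101 to 0.79 nM, 2-fold series, 90 s association, 1200 s dissociation. Run at 25° C in HBS-P+ pH 7.4 with 100 μg/ml BSA; double-referenced global 1:1 fit with mass-transport term, KD=koff/kon.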

For assay [6], the target named is T2, LILRA3. As to the kind of experiment: SPR, Biacore 8K cross-reactivity study, single concentration 100 nM; upper end of the range 600-700 nM. How it is done: as §1
In another assay the target is T4, LILRB4 (human, UniProt Q8NHJ6 22-259).
T4 construct: Bought protein; limits of the extracellular domain are marked by bold type not visible here; whole entry named; also called recombinant human LILRB4; ILT3
In words: SPR, Biacore 8K, mAb captured on anti-human Fc, analyte injected. As for the experimental part: as §1

For another assay, the target named is T5, LILRA6 (human, UniProt Q6PI73 24-447).
T5 construct: Bought protein; limits of the extracellular domain are marked by bold type not visible here; whole entry named; also called recombinant human LILRA6
The description is as above. How it is done: as §1

For a further assay, the target named is T6, LILRA5 (human, UniProt A6NI73 42-268).
T6 construct: Bought protein; limits of the extracellular domain are marked by bold type not visible here; whole entry named; also called recombinant human LILRA5
The assay is described as above. How it is done:
as §1

Another assay addresses T7, LILRA2 (human, UniProt Q8N149 24-449).
T7 construct: Bought protein; limits of the extracellular domain are marked by bold type not visible here; whole entry named; also called recombinant human LILRA2
Described as above. How it is done: as §1

The next assay has as its target T8, LILRA4 (human, UniProt P59901 24-446).
T8 construct: Bought protein; limits of the extracellular domain are marked by bold type not visible here; whole entry named; also called recombinant human LILRA4
Described as above. How it is done:
as §1

Another assay deals with T9, LILRB3 (human, UniProt O75022 24-443).
T9 construct: Bought protein; limits of the extracellular domain are marked by bold type not visible here; whole entry named; also called recombinant human LILRB3; ILT5
The assay is described as above. How it is done: as §1

The target of assay [7] is T1, recombinant human ILT4 (LILRB2). As to the kind of experiment: SPR, Biacore T200, mAb captured on anti-Fc, ILT4 injected, medium resolution, 25 C. In outline: as §2
In assay [8] the target is T10, human ILT4 expressed on cells (human, UniProt Q8N423 22-597).
T10 construct: whole, on cells; The same entry is used for endogenous ILT4 of human macrophages; also called CHO-S/ILT4 cells; ILT4-CHO cells
In words: flow based HLA-G blocking assay.

Assay [9] has as its target T1, recombinant human ILT4 (LILRB2). As to the kind of experiment: SPR, high resolution kinetics, triplicate, LALA antibody; 95% CI in parentheses.
Assay [10] concerns the target T2, LILRA3. As to the kind of experiment: SPR, Biacore 8K cross-reactivity study, single concentration 100 nM; lower end of the range 600-700 nM. How it is done: as §1

The values that follow come from patent US20260167714A1 (COHERUS BIOSCIENCES, published 2026).

A word on the Kd: it is a measure of binding affinity in units of concentration. As a reminder, the KD is a measure of binding affinity in units of concentration. The koff is the first-order rate constant of dissociation. Usually kon stands for the rate constant with which the complex forms. For orientation: IC50 means the concentration needed to halve the response being measured. Low readings indicate inhibition by little substance, high ones a need for much substance.

T1 sequence (Q8N423 other isoform, or with tags, fused parts or gaps limits assumed): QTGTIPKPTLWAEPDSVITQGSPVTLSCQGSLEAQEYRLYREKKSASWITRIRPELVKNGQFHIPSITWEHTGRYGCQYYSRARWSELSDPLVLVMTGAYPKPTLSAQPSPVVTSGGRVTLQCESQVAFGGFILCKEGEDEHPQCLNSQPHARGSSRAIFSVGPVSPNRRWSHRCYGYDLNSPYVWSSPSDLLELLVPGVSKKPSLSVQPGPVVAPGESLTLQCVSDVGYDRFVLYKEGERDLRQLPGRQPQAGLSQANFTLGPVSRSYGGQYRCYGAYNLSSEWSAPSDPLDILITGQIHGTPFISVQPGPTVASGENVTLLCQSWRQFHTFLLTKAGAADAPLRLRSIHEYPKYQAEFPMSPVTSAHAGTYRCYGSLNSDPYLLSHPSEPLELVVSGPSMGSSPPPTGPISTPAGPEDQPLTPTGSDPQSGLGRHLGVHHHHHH
T2 sequence (Q8N6C8 24-439 A105V limits assumed): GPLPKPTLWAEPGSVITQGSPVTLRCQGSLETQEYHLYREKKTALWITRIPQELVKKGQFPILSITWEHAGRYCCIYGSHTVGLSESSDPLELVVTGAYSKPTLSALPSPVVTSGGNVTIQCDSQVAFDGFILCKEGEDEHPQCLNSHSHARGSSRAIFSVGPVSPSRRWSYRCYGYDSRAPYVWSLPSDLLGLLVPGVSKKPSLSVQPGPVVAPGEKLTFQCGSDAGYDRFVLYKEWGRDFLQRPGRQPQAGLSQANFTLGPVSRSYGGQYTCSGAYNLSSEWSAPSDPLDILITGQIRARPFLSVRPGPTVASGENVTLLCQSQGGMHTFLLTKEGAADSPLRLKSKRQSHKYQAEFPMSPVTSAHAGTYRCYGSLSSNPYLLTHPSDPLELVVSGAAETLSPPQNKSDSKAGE
T9 sequence (O75022 other isoform, or with tags, fused parts or gaps): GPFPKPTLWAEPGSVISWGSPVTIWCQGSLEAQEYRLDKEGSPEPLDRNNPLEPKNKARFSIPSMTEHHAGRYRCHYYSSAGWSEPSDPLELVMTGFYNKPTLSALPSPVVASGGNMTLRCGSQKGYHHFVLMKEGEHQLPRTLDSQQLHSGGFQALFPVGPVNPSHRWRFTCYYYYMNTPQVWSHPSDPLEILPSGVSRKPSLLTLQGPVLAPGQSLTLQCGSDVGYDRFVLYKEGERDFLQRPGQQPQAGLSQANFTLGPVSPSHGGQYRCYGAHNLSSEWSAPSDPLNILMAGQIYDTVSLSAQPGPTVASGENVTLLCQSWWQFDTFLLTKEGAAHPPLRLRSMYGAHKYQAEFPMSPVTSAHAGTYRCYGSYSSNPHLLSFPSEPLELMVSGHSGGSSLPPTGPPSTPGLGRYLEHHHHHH
T8 sequence (P59901 other isoform, or with tags, fused parts or gaps): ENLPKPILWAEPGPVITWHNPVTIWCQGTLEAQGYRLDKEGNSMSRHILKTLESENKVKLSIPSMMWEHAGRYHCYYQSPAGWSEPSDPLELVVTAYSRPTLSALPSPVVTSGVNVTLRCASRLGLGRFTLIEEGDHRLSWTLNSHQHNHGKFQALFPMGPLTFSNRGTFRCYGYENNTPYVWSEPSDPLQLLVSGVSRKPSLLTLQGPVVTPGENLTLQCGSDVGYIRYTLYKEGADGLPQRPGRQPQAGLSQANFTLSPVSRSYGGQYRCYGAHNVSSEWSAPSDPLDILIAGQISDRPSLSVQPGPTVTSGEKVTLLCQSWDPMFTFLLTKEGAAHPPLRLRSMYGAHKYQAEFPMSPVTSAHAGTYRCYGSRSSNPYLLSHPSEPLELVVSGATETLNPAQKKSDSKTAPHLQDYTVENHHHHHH
T6 sequence (A6NI73 other isoform, or with tags, fused parts or gaps): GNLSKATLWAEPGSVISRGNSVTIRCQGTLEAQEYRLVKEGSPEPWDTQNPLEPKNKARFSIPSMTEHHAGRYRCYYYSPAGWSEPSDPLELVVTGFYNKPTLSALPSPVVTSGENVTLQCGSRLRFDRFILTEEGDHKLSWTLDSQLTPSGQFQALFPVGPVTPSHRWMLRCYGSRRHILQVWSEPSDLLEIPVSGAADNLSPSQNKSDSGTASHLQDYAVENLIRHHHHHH
T5 sequence (Q6PI73 other isoform, or with tags, fused parts or gaps): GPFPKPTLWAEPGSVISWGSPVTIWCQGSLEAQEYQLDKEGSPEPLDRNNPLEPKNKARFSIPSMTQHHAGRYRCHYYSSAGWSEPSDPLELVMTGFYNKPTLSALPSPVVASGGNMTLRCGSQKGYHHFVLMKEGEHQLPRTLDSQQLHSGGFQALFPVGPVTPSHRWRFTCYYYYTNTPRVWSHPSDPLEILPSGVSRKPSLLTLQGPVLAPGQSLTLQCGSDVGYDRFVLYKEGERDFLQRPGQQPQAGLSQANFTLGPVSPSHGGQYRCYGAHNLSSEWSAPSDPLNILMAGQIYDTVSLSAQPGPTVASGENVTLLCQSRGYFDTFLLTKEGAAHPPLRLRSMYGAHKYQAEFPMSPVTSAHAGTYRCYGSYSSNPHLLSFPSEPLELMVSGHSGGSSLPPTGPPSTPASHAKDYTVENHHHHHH
T3 sequence (O75019 other isoform, or with tags, fused parts or gaps): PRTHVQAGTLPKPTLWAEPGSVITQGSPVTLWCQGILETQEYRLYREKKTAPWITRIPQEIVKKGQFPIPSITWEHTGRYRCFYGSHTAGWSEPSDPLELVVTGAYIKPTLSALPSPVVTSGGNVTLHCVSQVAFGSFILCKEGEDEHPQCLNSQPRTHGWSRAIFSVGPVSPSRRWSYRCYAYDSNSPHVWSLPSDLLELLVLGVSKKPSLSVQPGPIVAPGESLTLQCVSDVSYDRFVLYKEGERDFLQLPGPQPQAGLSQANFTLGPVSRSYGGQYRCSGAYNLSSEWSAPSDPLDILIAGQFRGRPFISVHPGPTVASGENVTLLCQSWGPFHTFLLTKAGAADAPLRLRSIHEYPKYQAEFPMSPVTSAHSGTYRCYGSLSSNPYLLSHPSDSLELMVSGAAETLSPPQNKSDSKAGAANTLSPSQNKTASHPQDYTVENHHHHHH
T4 sequence (Q8NHJ6 other isoform, or with tags, fused parts or gaps): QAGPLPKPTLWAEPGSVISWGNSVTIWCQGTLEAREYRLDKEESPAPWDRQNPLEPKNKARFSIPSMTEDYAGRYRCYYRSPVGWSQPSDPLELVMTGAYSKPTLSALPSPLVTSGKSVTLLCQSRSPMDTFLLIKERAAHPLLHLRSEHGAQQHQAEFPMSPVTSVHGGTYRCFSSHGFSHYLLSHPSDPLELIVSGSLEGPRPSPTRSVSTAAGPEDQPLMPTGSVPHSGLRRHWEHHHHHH
T7 sequence (Q8N149 other isoform, or with tags, fused parts or gaps): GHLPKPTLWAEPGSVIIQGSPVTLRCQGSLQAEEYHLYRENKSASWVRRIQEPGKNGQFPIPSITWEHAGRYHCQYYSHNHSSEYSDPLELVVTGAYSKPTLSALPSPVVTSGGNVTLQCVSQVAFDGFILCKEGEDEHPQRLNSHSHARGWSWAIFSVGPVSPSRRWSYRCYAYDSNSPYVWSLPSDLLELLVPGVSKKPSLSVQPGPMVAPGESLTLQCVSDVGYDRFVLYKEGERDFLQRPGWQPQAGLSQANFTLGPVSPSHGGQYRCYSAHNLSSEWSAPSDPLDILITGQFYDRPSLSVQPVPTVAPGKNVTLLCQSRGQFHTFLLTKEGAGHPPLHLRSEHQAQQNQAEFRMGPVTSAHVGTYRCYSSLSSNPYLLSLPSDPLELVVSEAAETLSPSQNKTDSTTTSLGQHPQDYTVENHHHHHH
T10 sequence (Q8N423 22-597): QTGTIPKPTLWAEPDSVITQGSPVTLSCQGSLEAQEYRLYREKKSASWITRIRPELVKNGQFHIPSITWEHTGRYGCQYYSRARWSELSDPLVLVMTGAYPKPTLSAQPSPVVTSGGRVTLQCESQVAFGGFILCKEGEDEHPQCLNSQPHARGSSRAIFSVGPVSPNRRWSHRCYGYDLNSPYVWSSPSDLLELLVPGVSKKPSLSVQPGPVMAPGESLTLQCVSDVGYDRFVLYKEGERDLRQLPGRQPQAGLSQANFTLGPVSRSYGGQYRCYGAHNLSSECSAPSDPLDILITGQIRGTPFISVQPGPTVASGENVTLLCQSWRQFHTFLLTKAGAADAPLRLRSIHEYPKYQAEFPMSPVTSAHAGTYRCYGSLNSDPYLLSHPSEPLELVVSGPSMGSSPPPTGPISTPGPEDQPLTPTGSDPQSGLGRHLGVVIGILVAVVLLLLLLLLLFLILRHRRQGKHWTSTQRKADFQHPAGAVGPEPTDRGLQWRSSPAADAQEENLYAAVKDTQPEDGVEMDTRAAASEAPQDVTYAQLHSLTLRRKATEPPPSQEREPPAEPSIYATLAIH

B1: Hz180-LALA (antibody, human IgG1, kappa, L234A L235A, V domains shown)
VH: QVQLVQSGAEVKKPGSSVKVSCKASGYSFIGYFMNWMRQAPGQGLEWIGRINPYNGDIFYNQKFKGRVTITVDKSTSTAYMELSSLRSEDTAVYYCARGITVAAGSFDVWGQGTTVTVSS
VL: DIVMTQSPDSLAVSLGERATINCRASESVDNYGNTFMHWYQQKPGQPPKLLIYRASNLESGIPDRFSGSGSGTDFTLTISSLQAEDVAVYYCQQSSDHPLTFGGGTKVEIKR
notes: Humanized L180S4, human IgG1 L234A/L235A, kappa; also called Humanized 180_04; Hz 180 04
In the case of B1, the Kd in assay [1] was 0.759 pM; in [3], 1.6 pM; in assay [5] it was at most 0.053 nM; in the assay with LILRA3 [6], 600 to 700 nM; in the assay with LILRA3 [10], 600 to 700 nM. The KD with LILRA3 [2] was 600 to 700 nM; in [4] it was under 0.1 nM. The koff in [3] is 6.3e-06 s⁻¹; in assay [5], at most 4.27e-05 s⁻¹. Further, the binding result with LILRA1 is “binds”; with LILRB4 it was “no binding (tested: 100 nM)”; with LILRA6, “no binding (tested: 100 nM)”; with LILRA5 it was “no binding (tested: 100 nM)”; in the assay with LILRA2, “no binding (tested: 100 nM)”; with LILRA4, “no binding (tested: 100 nM)”. Moreover, the binding result with LILRB3 was “no binding (tested: 100 nM)”. Moreover, the results for the kon in assay [7] and in assay [9] were 812000 M⁻¹ s⁻¹ and 3.95e+06 M⁻¹ s⁻¹, respectively. The IC50 in assay [8] worked out at 0.051 µg/mL.
